{
  "source": "paper PMC4176333",
  "binders": {"B1": {"name": "14mer dsRNA (dsRNA)", "RNA 1": "GGGCGGGCCCGCCC", "RNA 2": "GGGCGGGCCCGCCC"}},
  "key": {"Hera_core [1]": {"molecular_target": "T1, Hera_core (UniProt Q72GF3 1-365)", "T1 sequence": "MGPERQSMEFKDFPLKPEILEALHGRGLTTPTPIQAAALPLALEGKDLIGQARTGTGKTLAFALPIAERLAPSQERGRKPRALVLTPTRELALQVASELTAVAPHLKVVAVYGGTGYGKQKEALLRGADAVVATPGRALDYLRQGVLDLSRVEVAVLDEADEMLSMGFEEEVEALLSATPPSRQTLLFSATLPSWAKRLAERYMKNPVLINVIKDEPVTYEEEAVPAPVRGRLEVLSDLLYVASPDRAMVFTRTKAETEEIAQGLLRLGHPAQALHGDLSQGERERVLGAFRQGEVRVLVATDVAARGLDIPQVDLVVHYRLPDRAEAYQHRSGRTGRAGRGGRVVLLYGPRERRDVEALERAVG", "experiment": "fluorescence intensity titration"}, "Hera_core [2]": {"molecular_target": "T1, Hera_core", "experiment": "fluorescence intensity titration", "remark": "listed apart in the source"}, "Hera RecA_N": {"molecular_target": "T2, Hera RecA_N (UniProt Q72GF3 1-207)", "T2 sequence": "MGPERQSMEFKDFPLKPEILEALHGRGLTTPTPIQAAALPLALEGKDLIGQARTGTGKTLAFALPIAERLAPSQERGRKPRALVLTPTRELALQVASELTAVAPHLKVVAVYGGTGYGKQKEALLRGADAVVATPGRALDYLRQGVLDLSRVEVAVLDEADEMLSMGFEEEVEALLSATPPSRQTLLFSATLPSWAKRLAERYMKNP", "experiment": "fluorescence intensity titration"}, "Hera RecA_C": {"molecular_target": "T3, Hera RecA_C (UniProt Q72GF3 208-369)", "T3 sequence": "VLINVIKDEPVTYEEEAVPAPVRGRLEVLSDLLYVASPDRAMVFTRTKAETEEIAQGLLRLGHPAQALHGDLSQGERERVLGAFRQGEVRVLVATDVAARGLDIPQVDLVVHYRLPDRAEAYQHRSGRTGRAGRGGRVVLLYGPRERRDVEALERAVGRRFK", "experiment": "fluorescence intensity titration"}, "YxiN_core": {"molecular_target": "T4, YxiN_core (UniProt P42305 1-368)", "T4 sequence": "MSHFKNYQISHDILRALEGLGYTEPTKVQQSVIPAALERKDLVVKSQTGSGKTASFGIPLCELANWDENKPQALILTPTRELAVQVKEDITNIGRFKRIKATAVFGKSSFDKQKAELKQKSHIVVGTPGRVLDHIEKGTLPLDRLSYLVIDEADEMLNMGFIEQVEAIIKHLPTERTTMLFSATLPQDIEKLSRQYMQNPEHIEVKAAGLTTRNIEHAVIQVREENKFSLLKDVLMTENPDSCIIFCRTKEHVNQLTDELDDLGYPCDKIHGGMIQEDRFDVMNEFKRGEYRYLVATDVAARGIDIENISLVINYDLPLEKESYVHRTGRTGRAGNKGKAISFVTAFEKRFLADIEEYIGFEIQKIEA", "experiment": "fluorescence intensity titration"}, "YxiN RecA_C": {"molecular_target": "T5, YxiN RecA_C (UniProt P42305 211-370)", "T5 sequence": "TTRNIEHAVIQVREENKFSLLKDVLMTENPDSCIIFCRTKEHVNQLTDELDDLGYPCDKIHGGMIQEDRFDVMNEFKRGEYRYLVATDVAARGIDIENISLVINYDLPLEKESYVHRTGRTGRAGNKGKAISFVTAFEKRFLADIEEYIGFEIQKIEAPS", "experiment": "fluorescence anisotropy"}, "YxiN RecA_N": {"molecular_target": "T6, YxiN RecA_N (UniProt P42305 1-206)", "T6 sequence": "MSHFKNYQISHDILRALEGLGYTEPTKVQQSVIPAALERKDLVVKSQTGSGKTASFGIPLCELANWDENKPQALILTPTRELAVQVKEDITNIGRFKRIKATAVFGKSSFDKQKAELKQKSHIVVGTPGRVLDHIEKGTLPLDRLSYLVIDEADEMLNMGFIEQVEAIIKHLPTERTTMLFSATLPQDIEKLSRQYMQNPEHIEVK", "experiment": "fluorescence anisotropy"}},
  "note": "Like-named read-outs stand apart in the source and are kept apart here.",
  "data": [
    {"binder": "B1", "values": [
      {"measurement": "Kd", "setting": "Hera_core [1]", "result": 15.1, "unit": "nM"},
      {"measurement": "Kd", "setting": "Hera_core [2]", "result": "7 ± 3", "unit": "nM"},
      {"measurement": "Kd", "setting": "Hera RecA_N", "result": "889 ± 236", "unit": "nM"},
      {"measurement": "Kd", "setting": "Hera RecA_C", "result": "327 ± 161", "unit": "nM"},
      {"measurement": "Kd", "setting": "YxiN_core", "result": 2, "unit": "nM"},
      {"measurement": "binding result", "setting": "YxiN RecA_C", "result": "no binding"},
      {"measurement": "binding result", "setting": "YxiN RecA_N", "result": "no binding"}
    ]}
  ]
}
